Publication PMC2110890, “Glutathione mediated regulation of oligomeric structure and functional activity of Plasmodium falciparum glutathione S-transferase” (BMC Structural Biology, 2007)

Columns and labels:
human GST (human) [1] = target: human GST (human) (UniProt P09211); assay: SEC; Superdex 200 10/300 GL, 100 mM potassium phosphate pH 8.0, 1 mM EDTA, 0.3 mL/min, 25°C; incubated and run without GSH
human GST (human) [2] = target: human GST (human) (UniProt P09211); assay: SEC; Superdex 200 10/300 GL, 100 mM potassium phosphate pH 8.0, 1 mM EDTA, 25°C; incubated and run with GSH at 0.7 mM or more (2 mM GSH in Figures 1B and 3)
human GST (human) [3] = target: human GST (human) (UniProt P09211); assay: cross-linking; 1% glutaraldehyde, 30 min, room temperature, protein 50 μg/mL, 10% SDS-PAGE; sample incubated with GSH
human GST (human) [4] = target: human GST (human) (UniProt P09211); assay: cross-linking; 1% glutaraldehyde, 30 min, room temperature, protein 50 μg/mL, 10% SDS-PAGE; sample without GSH
[5] = target: the molecule itself; assay: SEC; Superdex 200 10/300 GL, 100 mM potassium phosphate pH 8.0, 1 mM EDTA, 0.3 mL/min, 25°C; incubated and run without GSH
[6] = target: the molecule itself; assay: SEC; GSH-stabilized dimer dialysed for 4 h against buffer without GSH, then loaded on the column
[7] = target: the molecule itself; assay: SEC; Superdex 200 10/300 GL, 100 mM potassium phosphate pH 8.0, 1 mM EDTA, 25°C; incubated and run with GSH at 0.7 mM or more (2 mM GSH in Figures 1B and 3)

**Q.** What does the source list for “human GST (from UniProt P09211 1-210) (enzyme)”?
**A.** stoichiometry N (human GST (human) [1]): 2; stoichiometry N (human GST (human) [2]): 2; stoichiometry N (human GST (human) [3]): 2; stoichiometry N (human GST (human) [4]): 2

B1: Plasmodium falciparum glutathione S-transferase (enzyme, UniProt Q8ILQ7 1-211, looked up)
chain: MGDNIVLYYFDARGKAELIRLIFAYLGIEYTDKRFGVNGDAFVEFKNFKKEKDTPFEQVPILQIGDLILAQSQAIVRYLSKKYNICGESELNEFYADMIFCGVQDIHYKFNNTNLFKQNETTFLNEDLPKWSGYFEKLLKKNHTNNNNDKYYFVGNNLTYADLAVFNLYDDIETKYPSSLKNFPLLKAHNEFISNLPNIKNYITNRKESVY
notes: Glutathione S-transferase of Plasmodium falciparum (PfGST), recombinant, about 26 kDa on SDS-PAGE; The chain is a homotetramer without GSH and a homodimer at GSH of 0.7 mM or more, so copies is left empty; also called PfGST; recombinant PfGST; source: E. coli M15, purified (Ni-NTA agarose)
**Q.** What does the source list for B1?
**A.** stoichiometry N [5]: 4; ratio of dimer to tetramer [6]: ~0.33 dimer:tetramer; stoichiometry N [7]: 2
